The values that follow come from patent publication US20060292117A1.

The test has as its target serpin enzyme complex receptor (secR) on IB3 cells. Nature of the test: cell-based or functional assay.

As to “VP1 serpin virus (AAV2 capsid with serpin ligand FVFLI substituted for the capsid sequence immediately after aa 34) (from UniProt P03135 1-34; P03135 40-735; P03135 138-735; P03135 203-735)”, the infectivity on IB3 cells (hAAT ELISA) against wt capsid came to 62 fold.
